Assay: label from the status in PepcDB records
With “MSLISFAPHSGVWLLTTPHTSYALRIDASGAPCHLAWGPRLTLAAAEELAVPEPPAASSFEGRPSVGEELPVDGGVRYGPPSLQVRFADGSRAFEWQPTGHRVHESADGAHELVLFFRDRRYPLQVALHYRVRADTDVIERWTVVRNGGDEPVTLLRADSAAWTLPPLADYRLSHVTGQWSAESRLRRDRLPYGETVLTSRRGITSHHTNPWLMVDSGEATEDHGRVWSAALAWSGSWRITTQRTPDGRTGFTGGVGHDGTGVPLTPGEEFTAPAFAGLFTADGFGAASRAWHAYTLAHVLPHPDEPVPVLYNSWEATGFDVDEVGQKALAERAAALGVELYVVDDGWFGGRRSDRAGLGDWTPAPDRFPDGLGPLADRVRELGMRFGLWVEPEMVNPDSDLYRAHPDWVLHLPDRSRSELRNQLVLNFARRDVADWAYGWLTELVGAHRIDFLKWDMNRAFSEAGWPGQQDGADRLGTQYVRHLYGVIDRLRADHPGLRIESCSGGGGRIDLGILGRTDQTWASDNTDAADRLWIQHGFSQIYPARTMGCWVTDAPNQFTGRGLPLRFRFHAAMAGALGIGGDLARWSEEELREGAALVTEYKKVRHLVQHGRLDRLSPPSGQSPAVVQYTSADGSESLVLAWRGVPRPGDADLPVRLRALTPAARYRDSRTGTVHHASVLGDYGLRLDLPAGDWSSVAMHLVREPEAV” the protein production was “failed”. With “MSLIVITGASSGLGAELAKLYDAEGKATYLTGRSESKLSTVTNCLSNNVGYRARDLASHQEVEQLFEQLDSIPSTVVHSAGSGYFGLLQEQDPEQIQTLIENNLSSAINVLRELVKRYKDQPVNVVMIMSTAAQQPKAQESTYCAVKWAVKGLIESVRLELKGKPMKIIAVYPGGMATEFWETSGKSLDTSSFMSAEDAALMIHGALANIGNGYVSDITVNREGHHHHHH” the protein production was “not failed”. For “MSLKFDFSNLFEPNISGGLTDEDVKSVEEKVTSAVRNFVENTPDFAKLDRSWIDSVKSLEDWIINFDTVVVLGIGGSGLGNLALHYSLRPLNWNEMTREERNGYARVFVVDNVDPDLMSSVLDRIDPKTTLFNVISKSGSTAEVMATYSIARGILEAYGLDPREHMLITTDPEKGFLRKLVKEEGFRSLEVPPGVGGRFSVLTPVGLLSAMAEGIDIDELHEGAKDAFEKSMKENILENPAAMIALTHYLYLNKGKSISVMMAYSNRMIYLVDWYRQLWAESLGKRYNLKGEEVFTGQTPVKALGATDQHSQIQLYNEGPNDKVITFLRVENFDREIVIPETGRAELSYLARKKLSELLLAEQTGTEEALRENNRPNMRVTFDGLTPYNVGQFFAYYEAATAFMGYLLEINPFDQPGVELGKKITFALMGREGYTYEIKERSKKVIIE”, the protein production was “not failed”. In the case of “MSLKGKRIGFGFTGSHCTYEEVMPHLEKLIAEGAEVRPVVSYTVQSTNTRFGEGAEWIKKIEEITGFKAINSIVGAEPLGPKIPLDCMVIAPLTGNSMSKFANAMTDSPVLMAAKATLRNGKPVVLAVSTNDALGLNGVNLMRLMATKNIYFVPFGQDAPEKKPNSMVARMELLEDTVLEALQGKQLQPVVVEKFRYMNLEHHHHHH”, the protein production is reported as “not failed”. For “MSLKGLRRLVLDVLKPHEPKTIVFALKLSELENVDGVNIHLSEIDQATENIKITILGNNLDYEQIKGVIEDMGGVIHSVDEVVAGKIIVESVEGHHHHHH”, the protein production was “not failed”. With “MSLKHVVVIGAVALGPKAACRFKRLDPEAHVTMIDQASRISYGGCGIPYYVSGEVSNIESLQATPYNVVRDPEFFRINKDVEALVETRAHAIDRAAHTVEIENLRTGERRTLKYDKLVLALGSKANRPPVEGMDLAGVTPVTNLDEAEFVQHAISAGEVSKAVIVGGGFIGLEMAVSLADMWGIDTTVVELADQIMPGFTSKSLSQMLRHDLEKNDVVVHTGEKVVRLEGENGKVARVITDKRTLDADLVILAAGVSPNTQLARDAGLELDPRGAIIVDTRMRTSDPDIFAGGDCVTIPNLVTGKPGFFPLGSMANRQGRVIGTNLADGDATFPGAVGSWAVKLFEGSASGAGLTVEGALREGYDAVNVHVEQFDRAHFYPEKTIMTLQLVVDRPTRRVLGIQGFSTLGDALTARINAVATMLASKPTVEDISNAEVVYSPPFASAMDIVNVAGNVADNVLAGREGHHHHHH” the protein production was “not failed”. With “MSLKIIDFRLRPPAMGFLNARIYTRPDIRNRFTRQLGFEPAPSAEEKSLELMFEEMAAAGIEQGVCVGRNSSVLGSVSNADVAAVAKAYPDKFHPVGSIEAATRKEAMAQMQEILDLGIRIVNLEPGVWATPMHVDDRRLYPLYAFCEDNGIPVIMMTGGNAGPDITYTNPEHIDRVLGDFPDLTVVSSHGNWPWVQEIIHVAFRRPNLYLSPDMYLYNLPGHADFIQAANSFLADRMLFGTAYPMCPLKEYTEWFLTLPIKPDAMEKILHGNAERLLAQAGREGHHHHHH” the protein production was “not failed”. In the case of “MSLKITDVDVWVVNLPLVNPFTSSFETKTGETRTVVRVRTDSGVEGWGETMWGAPVAAIVRRMAPDLIGTSPFALEAFHRKQHMVPFFYGYLGYAAIAAVDVACWDAMGKATGQSVTDLLGGAVRDEVPITALITRADAPGATPADLPKAMAEHAVRVVEEGGFDAVKLKGTTDCAGDVAILRAVREALPGVNLRVDPNAAWSVPDSVRAGIALEELDLEYLEDPCVGIEGMAQVKAKVRIPLCTNMCVVRFEDFAPAMRLNAVDVIHGDVYKWGGIAATKALAAHCETFGLGMNLHSGGELGIATAAHLAVVSSTPVLSRAIDSMYYLHADDIIEPLHLENGRLRVPSGPGLGVSVDEDKLRHYAGVNERDGDLTGEGHHHHHH”, the protein production is reported as “not failed”. With “MSLKLTPEAAGTFAIAPTPFHDDGKIDDVSIDRLTDFYAEVGCEGVTVLGILGEAPKLDAAEAEAVATRFIKRAKSMQVIVGVSAPGFAAMRRLARLSMDAGAAGVMIAPPPSLRTDEQITTYFRQATEAIGDDVPWVLQDYPLTLSVVMTPKVIRQIVMDSASCVMLKHEDWPGLEKITTLRGFQKDGSLRPLSILCGNGGLFLDFEMERGADGAMTGYCFPDMLVDVVKLSKAGQRDLAHNLFDAHLPLIRYEHQQGVGLSVRKYVLKKRGLLSSSAQRKPGASLTDTAREEVDYLLSRLARVEGHHHHHH” the protein production was “not failed”. In the case of “MSLKNKFKNFFSLDDEEYEYEYIETDREEIPEEHESKDRTAYQSKAAGKQNVVSLQSVQKSSKVVLSEPRVYAEAQEIADHIKNRRAVVVNLQRIQHDQAKRIVDFLSGTVYALGGDIQRIGADIFLCTPENVDVSGTISELIEEEHQRW”, the protein production is reported as “failed”. For “MSLKNMADLSYVNIFTRDIVAMSAFYQQVFGFQEIESIRSPIFRGLDTGKSCIGFNAHEAYELMQLAQFSETSGIKFLLNFDVDTKEAVDKLVPVAIAAGATLIKAPYETYYHWYQAVLLDPERNVFRINNVLEGHHHHHH”, the protein production was “not failed”. With “MSLKSLASIENWPVPTAAAGVVRADGTVLGTHGPAAHRFPLASVTKPLAAYAALVAYEEGAIELDEPAGPPGATVRHLLAHTSGLAFDEHRVTAPPGDRRLYSNAGFEQLGDHIAKAAEMPFAEYARQAVLEPLGMTATSLAGSPAKDGVSTVDDLLRFAAEVQAPRLLDPRTVAEAMTVQYPGTKGVLPGYGHQNPNDWGLGFEIRDGKSPHWTGAASSPRTFGHFGQSGTFLWIDPDAALACVSLTDRAFGPWAVEAWPPFTDGVLAEVRG” the protein production was “failed”. With “MSLKVQGYANVVTLPNVTGRVIIVGDIHGCRAQLEDLLRAVSFKQGSDTLVAVGDLVNKGPDSFGVVRLLKRLGAYSVLGNHDAKLLKLVKKLGKKECLKGRDAKSSLAPLAQSIPTDVETYLSQLPHIIRIPAHNVMVAHAGLHPQRPVDRQYEDEVTTMRNLIEKEQEATGGVTLTATEETNDGGKPWASMWRGPETVVFGHDARRGLQEQYKPLAIGLDSRCVYGGRLSAAVFPGGCIISVPGWNGASAAAEGHHHHHH” the protein production was “not failed”. With “MSLKYKLIVLDLDGTLTNSKKEISSRNRETLIRIQEQGIRLVLASGRPTYGIVPLANELRMNEFGGFILSYNGGEIINWESKEMMYENVLPNEVVPVLYECARTNHLSILTYDGAEIVTENSLDPYVQKEAFLNKMAIRETNDFLTDITLPVAKCLIVGDAGKLIPVESELCIRLQGKINVFRSEPYFLELVPQGIDKALSLSVLLENIGMTREEVIAIGDGYNDLSMIKFAGMGVAMGNAQEPVKKAADYITLTNDEDGVAEAIERIFNVEGHHHHHH” the protein production was “not failed”. For “MSLLIRELETNDLDNFPEIDDSFIVNARLMLSLSKVNRRIEYTVEDVPSYEKSYLQNDNEELVYNEYINKPNQIIYIALLHNQIIGFIVLKKNWNNYAYIEDITVDKKYRTLGVGKRLIAQAKQWAKEGNMPGIMLETQNNNVAACKFYEKCGFVIGGFDFLVYKGLNMTSDEVAIYWYLHFDS”, the protein production was “failed”.
